Measurements as given in patent US20210147564A1 (published 2021).

B1: heavy chain-only anti-BCMA antibody (UniAb) with the heavy chain variable region of SEQ ID NO: 15 (antibody, V domains shown)
VH: EVQLLESGGGLVQPGGSLRLSCAASGFTFSSYAMSWVRQAPGKGLEWVSSISGSGDYIYYADSVKGRFTISRDISKNTLYLQMNSLRAEDTAVYYCAKEGTGANSSLADYRGQGTLVTVSS
B2: heavy chain-only anti-BCMA antibody (UniAb) with the heavy chain variable region of SEQ ID NO: 13 (antibody, V domains shown)
VH: QVQLVESGGGLVQPGGSLRLSCAASGFTFSSHAMTWVRQAPGKGLEWVAAISGSGDFTHYADSVKGRFTISRDNSKNTVSLQMNNLRAEDTAVYYCAKDEDGGSLLGYRGQGTLVTVSS
B3: heavy chain-only anti-BCMA antibody (UniAb) with the heavy chain variable region of SEQ ID NO: 12 (antibody, V domains shown)
VH: QVQLVESGGGLVQPGGSLRLSCAASGFTFTNHAMSWVRQAPGKGLELVSSISGNGRTTYYADSVKGRFTISRDISKNTLDLQMNSLRAEDTAVYYCAKDGGETLVDSRGQGTLVTVSS

How the values were obtained:
[1] = target: BCMA protein of Cynomolgus macaque (Cynomolgus macaque, UniProt A0A2K5UD97 1-53); assay: Octet off-rate
BCMA protein of Cynomolgus macaque, sequence (A0A2K5UD97 entry or part of it): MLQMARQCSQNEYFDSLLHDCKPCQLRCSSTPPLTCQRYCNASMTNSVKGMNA

[2] = target: T1, human BCMA ECD protein (Abcam ab50089) (human, UniProt Q02223 1-54); assay: Octet off-rate
T1 chain: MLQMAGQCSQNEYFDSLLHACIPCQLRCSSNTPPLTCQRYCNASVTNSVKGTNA

Row | Binder | koff [1] | koff [2]
1 | B1 | 0.000322 s⁻¹ | < 1e-07 s⁻¹
2 | B2 | 0.00189 s⁻¹ | < 1e-07 s⁻¹
3 | B3 | 0.000941 s⁻¹ | < 1e-07 s⁻¹
